Laboratory results: the supplement of paper PMC5998384

Experiments:
[1] = system: HeLa Kyoto; experiment: solubility in G1/S (NP-40 vs SDS abundance) (log2 ratio); higher = more soluble; conditions: cell cycle stage: G1/S
[2] = system: HeLa Kyoto; experiment: thermal stability score vs G1/S (z-score of summed log2 fold changes over temperatures); higher = more thermally stable than in G1/S
[3] = system: HeLa Kyoto; experiment: solubility change mitosis vs G1/S (difference of NP-40 vs SDS log2 ratios) (log2 ratio difference); higher = more soluble in mitosis
[4] = system: HeLa Kyoto; experiment: melting temperature (median over replicates), in situ; higher = more thermally stable
[5] = cell cycle stage: early G1 (4.5 h after nocodazole release)
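Wherever melting temperature (median over replicates), in situ is given: HeLa Kyoto cells synchronized by double thymidine or nocodazole block, proteins quantified by TMT10plex mass spectrometry, three independent biological replicates.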
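Wherever solubility change mitosis vs G1/S (difference of NP-40 vs SDS log2 ratios) is given: synchronized HeLa Kyoto cells (double thymidine block for G1/S, nocodazole release for mitosis), protein amounts in NP-40 versus SDS lysates quantified by mass spectrometry, three biological replicates.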
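Wherever solubility in G1/S (NP-40 vs SDS abundance) is given: HeLa Kyoto cells arrested at G1/S by double thymidine block, proteins quantified by TMT10plex mass spectrometry in mild NP-40 versus SDS extracts, three biological replicates.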
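Wherever thermal stability score vs G1/S (z-score of summed log2 fold changes over temperatures) is given: synchronized HeLa Kyoto cells, proteins quantified by TMT10plex mass spectrometry, three biological replicates, mitosis taken 0.5 h after nocodazole release, G1/S directly after double thymidine block.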

## MSWFNASQLSSFAKQALSQAQKSIDRVLDIQEEEPSIWAETIPYGEPGISSPVSGGWDTSTWGLKSNTEPQSPPIASPKAITKPVRRTVVDESENFFSAFLSPTDVQTIQKSPVVSKPPAKSQRPEEEVKSSLHESLHIGQSRTPETTESQVKDSSLCVSGETLAAGTSSPKTEGKHEETVNKESDMKVPTVSLKVSESVIDVKTTMESISNTSTQSLTAETKDIALEPKEQKHEDRQSNTPSPPVSTFSSGTSTTSDIEVLDHESVISESSASSRQETTDSKSSLHLMQTSFQLLSASACPEYNRLDDFQKLTESCCSSDAFERIDSFSVQSLDSRSVSEINSDDELSGKGYALVPIIVNSSTPKSKTVESAEGKSEEVNETLVIPTEEAEMEESGRSATPVNCEQPDILVSSTPINEGQTVLDKVAEQCEPAESQPEALSEKEDVCKTVEFLNEKLEKREAQLLSLSKEKALLEEAFDNLKDEMFRVKEESSSISSLKDEFTQRIAEAEKKVQLACKERDAAKKEIKNIKEELATRLNSSETADLLKEKDEQIRGLMEEGEKLSKQQLHNSNIIKKLRAKDKENENMVAKLNKKVKELEEELQHLKQVLDGKEEVEKQHRENIKKLNSMVERQEKDLGRLQVDMDELEEKNRSIQAALDSAYKELTDLHKANAAKDSEAQEAALSREMKAKEELSAALEKAQEEARQQQETLAIQVGDLRLALQRTEQAAARKEDYLRHEIGELQQRLQEAENRNQELSQSVSSTTRPLLRQIENLQATLGSQTSSWEKLEKNLSDRLGESQTLLAAAVERERAATEELLANKIQMSSMESQNSLLRQENSRFQAQLESEKNRLCKLEDENNRYQVELENLKDEYVRTLEETRKEKTLLNSQLEMERMKVEQERKKAIFTQETIKEKERKPFSVSSTPTMSRSSSISGVDMAGLQTSFLSQDESHDHSFGPMPISANGSNLYDAVRMGAGSSIIENLQSQLKLREGEITHLQLEIGNLEKTRSIMAEELVKLTNQNDELEEKVKEIPKLRTQLRDLDQRYNTILQMYGEKAEEAEELRLDLEDVKNMYKTQIDELLRQSLS [TMF1]
[1]
  solubility in G1/S (log2): 0.0833
[2]; [5]
  thermal stability score: -2.48
[2]; cell cycle stage: mitosis
  thermal stability score: -0.992
[3]
  solubility change mitosis (log2): -0.065
[4]; cell cycle stage: G1/S
  melting temperature: 54.5 °C
[4]; cell cycle stage: mitosis
  melting temperature: 54.4 °C

## MPAESGKRFKPSKYVPVSAAAIFLVGATTLFFAFTCPGLSLYVSPAVPIYNAIMFLFVLANFSMATFMDPGIFPRAEEDEDKEDDFRAPLYKTVEIKGIQVRMKWCATCRFYRPPRCSHCSVCDNCVEEFDHHCPWVNNCIGRRNYRYFFLFLLSLTAHIMGVFGFGLLYVLYHIEELSGVRTAVTMAVMCVAGLFFIPVAGLTGFHVVLVARGRTTNEQVTGKFRGGVNPFTNGCCNNVSRVLCSSPAPRYLGRPKKEKTIVIRPPFLRPEVSDGQITVKIMDNGIQGELRRTKSKGSLEITESQSADAEPPPPPKPDLSRYTGLRTHLGLATNEDSSLLAKDSPPTPTMYKYRPGYSSSSTSAAMPHSSSAKLSRGDSLKEPTSIAESSRHPSYRSEPSLEPESFRSPTFGKSFHFDPLSSGSRSSSLKSAQGTGFELGQLQSIRSEGTTSTSYKSLANQTRNGSLSYDSLLTPSDSPDFESVQAGPEPDPPLGYTSPFLSARLAQQREAERHPRLVPTGPTHREPSPVRYDNLSRHIVASLQEREKLLRQSPPLPGREEEPGLGDSGIQSTPGSGHAPRTSSSSDDSKRSPLGKTPLGRPAVPRFGKPDGLRGRGVGSPEPGPTAPYLGRSMSYSSQKAQPGVSETEEVALQPLLTPKDEVQLKTTYSKSNGQPKSLGSASPGPGQPPLSSPTRGGVKKVSGVGGTTYEISV [ZDHHC5]
[1]
  solubility in G1/S (log2): -0.172
[2]; [5]
  thermal stability score: -2.84
[2]; cell cycle stage: mitosis
  thermal stability score: 1.5
[3]
  solubility change mitosis (log2): 0.124
[4]; cell cycle stage: G1/S
  melting temperature: 59.1 °C
[4]; cell cycle stage: mitosis
  melting temperature: 62.7 °C

## MRQKHYLEAAARGLHDSCPGQARYLLWAYTSSHDDKSTFEETCPYCFQLLVLDNSRVRLKPKARLTPKIQKLLNREARNYTLSFKEAKMVKKFKDSKSVLLITCKTCNRTVKHHGKSRSFVSTLKSNPATPTSKLSLKTPERRTANPNHDMSGSKGKSPASVFRTPTSGQSVSTCSSKNTSKTKKHFSQLKMLLSQNESQKIPKVDFRNFLSSLKGGLLK [C18ORF21]
[1]
  solubility in G1/S (log2): -0.722
[2]; [5]
  thermal stability score: -0.862
[2]; cell cycle stage: mitosis
  thermal stability score: -0.417
[3]
  solubility change mitosis (log2): 2.72
[4]; cell cycle stage: mitosis
  melting temperature: 46.8 °C

## MNGRVDYLVTEEEINLTRGPSGLGFNIVGGTDQQYVSNDSGIYVSRIKENGAAALDGRLQEGDKILSVNGQDLKNLLHQDAVDLFRNAGYAVSLRVQHRLQVQNGPIGHRGEGDPSGIPIFMVLVPVFALTMVAAWAFMRYRQQL [SYNJ2BP]
[1]
  solubility in G1/S (log2): 0.0992
[2]; [5]
  thermal stability score: 1.82
[2]; cell cycle stage: mitosis
  thermal stability score: 1.39
[3]
  solubility change mitosis (log2): -0.0614
[4]; cell cycle stage: G1/S
  melting temperature: 51.6 °C
[4]; cell cycle stage: mitosis
  melting temperature: 51.6 °C

## MGDTSEDASIHRLEGTDLDCQVGGLICKSKSAASEQHVFKAPAPRPSLLGLDLLASLKRREREEKDDGEDKKKSKVSSYKDWEESKDDQKDAEEEGGDQAGQNIRKDRHYRSARVETPSHPGGVSEEFWERSRQRERERREHGVYASSKEEKDWKKEKSRDRDYDRKRDRDERDRSRHSSRSERDGGSERSSRRNEPESPRHRPKDAATPSRSTWEEEDSGYGSSRRSQWESPSPTPSYRDSERSHRLSTRDRDRSVRGKYSDDTPLPTPSYKYNEWADDRRHLGSTPRLSRGRGRREEGEEGISFDTEEERQQWEDDQRQADRDWYMMDEGYDEFHNPLAYSSEDYVRRREQHLHKQKQKRISAQRRQINEDNERWETNRMLTSGVVHRLEVDEDFEEDNAAKVHLMVHNLVPPFLDGRIVFTKQPEPVIPVKDATSDLAIIARKGSQTVRKHREQKERKKAQHKHWELAGTKLGDIMGVKKEEEPDKAVTEDGKVDYRTEQKFADHMKRKSEASSEFAKKKSILEQRQYLPIFAVQQELLTIIRDNSIVIVVGETGSGKTTQLTQYLHEDGYTDYGMIGCTQPRRVAAMSVAKRVSEEMGGNLGEEVGYAIRFEDCTSENTLIKYMTDGILLRESLREADLDHYSAIIMDEAHERSLNTDVLFGLLREVVARRSDLKLIVTSATMDAEKFAAFFGNVPIFHIPGRTFPVDILFSKTPQEDYVEAAVKQSLQVHLSGAPGDILIFMPGQEDIEVTSDQIVEHLEELENAPALAVLPIYSQLPSDLQAKIFQKAPDGVRKCIVATNIAETSLTVDGIMFVIDSGYCKLKVFNPRIGMDALQIYPISQANANQRSGRAGRTGPGQCFRLYTQSAYKNELLTTTVPEIQRTNLANVVLLLKSLGVQDLLQFHFMDPPPEDNMLNSMYQLWILGALDNTGGLTSTGRLMVEFPLDPALSKMLIVSCDMGCSSEILLIVSMLSVPAIFYRPKGREEESDQIREKFAVPESDHLTYLNVYLQWKNNNYSTIWCNDHFIHAKAMRKVREVRAQLKDIMVQQRMSLASCGTDWDIVRKCICAAYFHQAAKLKGIGEYVNIRTGMPCHLHPTSSLFGMGYTPDYIVYHELVMTTKEYMQCVTAVDGEWLAELGPMFYSVKQAGKSRQENRRRAKEEASAMEEEMALAEEQLRARRQEQEKRSPLGSVRSTKIYTPGRKEQGEPMTPRRTPARFGL [DHX38]
[1]
  solubility in G1/S (log2): -0.327
[2]; [5]
  thermal stability score: 0.477
[2]; cell cycle stage: mitosis
  thermal stability score: 0.888
[3]
  solubility change mitosis (log2): 0.0419
[4]; cell cycle stage: G1/S
  melting temperature: 50.8 °C
[4]; cell cycle stage: mitosis
  melting temperature: 52 °C
